The source of these data is patent publication US20220380471A1 (US Dept. of Health and Human Services, published 2022).

The chains are these.
T1: B7H3 (CD276) on MC38-CD276+ cells
T1 construct: whole, on cells; MC38-CD276KO cells served as the negative control; also called MC38-B7H3+
T1 sequence (Q5ZPR3 1-534, species assumed, looked up): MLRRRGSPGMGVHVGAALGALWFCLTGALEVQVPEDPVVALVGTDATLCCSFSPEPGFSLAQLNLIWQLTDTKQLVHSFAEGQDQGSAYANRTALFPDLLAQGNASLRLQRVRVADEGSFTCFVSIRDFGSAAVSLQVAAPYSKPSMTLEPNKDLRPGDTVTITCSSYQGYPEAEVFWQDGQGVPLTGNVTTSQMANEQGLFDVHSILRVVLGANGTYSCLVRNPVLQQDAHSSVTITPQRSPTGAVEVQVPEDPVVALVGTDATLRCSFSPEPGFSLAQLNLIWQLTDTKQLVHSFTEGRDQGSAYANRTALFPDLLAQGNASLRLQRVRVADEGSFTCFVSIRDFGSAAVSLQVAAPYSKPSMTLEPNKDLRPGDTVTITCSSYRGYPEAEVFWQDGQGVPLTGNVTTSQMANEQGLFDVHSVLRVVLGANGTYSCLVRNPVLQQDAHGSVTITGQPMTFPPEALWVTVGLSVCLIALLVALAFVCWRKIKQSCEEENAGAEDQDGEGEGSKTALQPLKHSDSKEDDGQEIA

T2: hB7H3-His (human, UniProt Q5ZPR3 29-461, limits assumed)
T2 construct: not shown: His tag
T2 sequence (looked up): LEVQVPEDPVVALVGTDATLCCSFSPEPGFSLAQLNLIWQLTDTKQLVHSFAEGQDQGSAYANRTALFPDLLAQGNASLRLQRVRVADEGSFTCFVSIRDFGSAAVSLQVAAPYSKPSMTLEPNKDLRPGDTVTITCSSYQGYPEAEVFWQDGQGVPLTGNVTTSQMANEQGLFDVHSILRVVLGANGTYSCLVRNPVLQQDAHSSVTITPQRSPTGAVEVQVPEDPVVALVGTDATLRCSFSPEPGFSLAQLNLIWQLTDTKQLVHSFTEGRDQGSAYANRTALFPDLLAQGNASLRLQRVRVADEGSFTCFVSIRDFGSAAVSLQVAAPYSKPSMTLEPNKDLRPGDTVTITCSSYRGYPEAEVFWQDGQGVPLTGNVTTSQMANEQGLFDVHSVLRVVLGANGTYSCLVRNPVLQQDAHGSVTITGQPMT

T3: rat B7H3-His (rat, UniProt Q7TPB4 29-244, limits assumed)
T3 construct: not shown: His tag
T3 sequence (looked up): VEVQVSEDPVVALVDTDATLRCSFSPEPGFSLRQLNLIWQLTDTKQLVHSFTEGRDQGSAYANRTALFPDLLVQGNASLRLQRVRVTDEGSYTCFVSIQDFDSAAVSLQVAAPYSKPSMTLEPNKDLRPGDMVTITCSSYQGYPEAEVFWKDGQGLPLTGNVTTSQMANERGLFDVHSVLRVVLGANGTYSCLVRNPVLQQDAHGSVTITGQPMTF

T4: human B7H3 (human, UniProt Q5ZPR3 29-466, limits assumed)
T4 construct: also called human B7H3 protein
T4 sequence (looked up): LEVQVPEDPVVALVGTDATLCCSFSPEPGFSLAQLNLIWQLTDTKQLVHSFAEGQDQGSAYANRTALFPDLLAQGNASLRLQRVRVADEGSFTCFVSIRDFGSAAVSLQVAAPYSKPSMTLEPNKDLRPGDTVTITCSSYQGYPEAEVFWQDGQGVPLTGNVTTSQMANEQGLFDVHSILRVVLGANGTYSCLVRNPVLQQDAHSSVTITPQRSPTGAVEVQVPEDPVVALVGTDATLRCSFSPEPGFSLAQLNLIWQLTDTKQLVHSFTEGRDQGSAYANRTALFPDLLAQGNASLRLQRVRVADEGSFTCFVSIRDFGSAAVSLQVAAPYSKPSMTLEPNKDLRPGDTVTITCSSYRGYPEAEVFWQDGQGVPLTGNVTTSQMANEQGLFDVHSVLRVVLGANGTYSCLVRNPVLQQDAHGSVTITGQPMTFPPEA

T5: monkey B7H3-His (monkey)
T5 chain: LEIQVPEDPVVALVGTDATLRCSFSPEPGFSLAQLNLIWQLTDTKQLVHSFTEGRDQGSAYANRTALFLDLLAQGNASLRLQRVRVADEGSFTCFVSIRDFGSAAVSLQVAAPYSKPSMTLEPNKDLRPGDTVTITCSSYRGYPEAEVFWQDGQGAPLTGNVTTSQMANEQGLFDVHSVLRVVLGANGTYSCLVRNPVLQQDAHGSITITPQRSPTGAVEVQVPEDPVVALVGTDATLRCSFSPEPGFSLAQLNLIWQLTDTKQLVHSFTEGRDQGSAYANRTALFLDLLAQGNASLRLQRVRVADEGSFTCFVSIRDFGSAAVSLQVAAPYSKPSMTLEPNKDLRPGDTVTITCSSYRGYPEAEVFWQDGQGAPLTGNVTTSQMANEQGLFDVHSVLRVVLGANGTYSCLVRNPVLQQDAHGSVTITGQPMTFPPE

B1: RWG8 (VHH)
VHH: DVQLVESGGGLVQPGGSLRLSCAASGFTFSRYWMGWFRQAPGKGVEWVSTINSGGGSTYYADSVKGRFTISRDNAKNTLYLQLNNLKTEDTAMYYCAKEQWRTGSRGQGTQVTVSS
notes: Camel VHH; tag not described; also called camel antibody RWG8
B2: RWB12 (VHH)
VHH: QVQLVESGGGSVQVGGSLRLSCAASGFTYNSYSVGWFRQAPGKEREGVAAINSGGSSTYYAASVKGRFTISRDNAKNTVYLQMNSLKPEDTAMYYCAARSPSPLTFQTRTLREDSYNYWGQGTQVTVSS
notes: Camel VHH; tag not described; also called camel antibody RWB12
B3: RWG4 (VHH)
VHH: QVQLVQSGGGLVQPGGSLRLSCAASGFTFSVYWFYWVRQAPRQGLEWVSTIASNGSTYYSDSVKGRFTISRDNAKNTVYLQMNSLKPEDTAVYYCVSDPDYYSDYERAYKFWAQGTQVTVSS
notes: Camel VHH; tag not described; also called camel antibody RWG4
B4: RWC4 (VHH)
VHH: EVQLVESGGGSVQAGGSLRLSCVASEDSTSAMCMGWFRQAPGKEREGVACINPTGEVTWYGDSVKGRFTISRDTVKKIVYLQMNSLKPEDTAMYYCAARVTYGGDWSTDTDYEYWGQGTQVTVSS
notes: Camel VHH; tag not described; also called camel antibody RWC4

The first assay concerns the target T1, B7H3 (CD276) on MC38-CD276+ cells. In words: flow cytometry on MC38-CD276+ cells, VHH at 0.5 ug/ml.
The molecule B1 displayed a Positive rates of 0.1%.

For the molecule B2, the Positive rates turned out to be 0.23%.

Molecule B3 displayed a Positive rates of 1.25%.

With B4, the Positive rates amounted to 14.4%.

The target of another assay is PD-L1. In words: ELISA; row PDL1-Fc; well 3 of 3. In a few lines: (§1)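 Camel VHH nanobodies were isolated by phage panning on recombinant B7H3-Fc and then purified. Their binding to immobilised recombinant proteins (B7H3 fusion proteins and non-B7H3 control proteins) was measured by ELISA and recorded as the ELISA signal.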
Chain of PD-L1 (Q9NZQ7 whole entry, the tested form may be a part): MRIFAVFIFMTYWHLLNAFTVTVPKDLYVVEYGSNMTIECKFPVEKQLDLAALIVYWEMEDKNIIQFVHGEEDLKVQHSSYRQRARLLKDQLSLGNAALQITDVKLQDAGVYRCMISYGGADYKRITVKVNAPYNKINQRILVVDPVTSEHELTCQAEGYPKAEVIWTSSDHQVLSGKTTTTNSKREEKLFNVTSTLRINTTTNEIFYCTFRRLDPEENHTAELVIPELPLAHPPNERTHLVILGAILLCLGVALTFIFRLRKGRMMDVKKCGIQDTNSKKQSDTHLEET
(In general: An ELISA detects its analyte on a solid surface through an enzyme-linked reagent.)
B1: the “ELISA reading (name not given)” value worked out at 0.0999.

Turning to B2, the “ELISA reading (name not given)” value is 0.0624.

Turning to B4, the “ELISA reading (name not given)” value came to 0.0613.

The target of another assay is T1, B7H3 (CD276) on MC38-CD276+ cells. In words: flow cytometry on MC38-CD276+ cells, VHH at 2 ug/ml. A general note: A flow cytometer gives signals particle by particle.
In turn, B1 yielded a Positive rates of 0.31%.

B2 came in with a Positive rates of 0.18%.

For the molecule B3, the Positive rates stood at 23.4%.

Molecule B4 displayed a Positive rates of 84.7%.

The target of a further assay is T2, hB7H3-His. The experiment in a line: ELISA; row B7H3-his; well 1 of 3. In a few lines:
as §1
For the molecule B1, the “ELISA reading (name not given)” value turned out to be 0.0693.

As to B2, the “ELISA reading (name not given)” value came to 0.0603.

On to B4, for which the “ELISA reading (name not given)” value was 0.114.

The next assay addresses T6, Irrelevant antigen.
T6 construct: negative control
In words: ELISA; row Irrelevant antigen; well 1 of 3. In a few lines: as §1
As for B1, the “ELISA reading (name not given)” value was determined as 0.104.

Regarding B2, the “ELISA reading (name not given)” value turned out to be 0.08.

Turning to B4, the “ELISA reading (name not given)” value worked out at 0.0845.

In the next assay the target is PD-L1. The experiment in a line: ELISA; row PDL1-Fc; well 1 of 3. In a few lines: as §1
For B1, the “ELISA reading (name not given)” value was found to be 0.0653.

With B2, the “ELISA reading (name not given)” value was 0.0639.

Take B4: the “ELISA reading (name not given)” value came out at 0.0625.

For a further assay, the target named is HN3-Fc. The experiment in a line: ELISA; row HN3-Fc; well 1 of 3. In a few lines: as §1
As for B1, the “ELISA reading (name not given)” value is 0.05.

Turning to B2, the “ELISA reading (name not given)” value was found to be 0.0533.

Take B4: the “ELISA reading (name not given)” value stood at 0.0801.

For the next assay, the target named is T6, Irrelevant antigen. In words: ELISA; row Irrelevant antigen; well 2 of 3. In a few lines: as §1
Take B1: the “ELISA reading (name not given)” value was 0.098.

Regarding B2, the “ELISA reading (name not given)” value amounted to 0.0864.

Regarding B4, the “ELISA reading (name not given)” value was 0.0888.

The target of the next assay is T3, rat B7H3-His. The experiment in a line: phage ELISA, cross-species. In a few lines:
(§2)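 Camel VHH phage were panned on recombinant B7H3-Fc protein for 3 rounds, using libraries from eight individual camels. Binding of the selected phage to immobilised antigens (human and other-species B7H3 or control proteins) was measured by phage ELISA and recorded as the ELISA signal.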
B1 registered an ELISA signal of 2.44.

Take B2: the ELISA signal was found to be 2.07.

The molecule B3 came in with an ELISA signal of 0.292.

The next assay has as its target T4, human B7H3. In words: phage ELISA, cross-species. In a few lines: as §2
Molecule B1 returned an ELISA signal of 2.67.

Take B2: the ELISA signal was determined as 2.74.

On to B3, for which the ELISA signal was 1.72.

On to B4, for which the ELISA signal stood at 2.5.

In the next assay the target is T5, monkey B7H3-His. The experiment in a line: phage ELISA, cross-species. In a few lines: as §2
In the case of B1, the ELISA signal was determined as 2.43.

B2: the ELISA signal was 2.31.

Consider B3, for which the ELISA signal was determined as 0.19.

Regarding B4, the ELISA signal is 1.54.

The target in the next assay is Non-relevant antigen. The experiment in a line: phage ELISA, cross-species. In a few lines: as §2
B1 came in with an ELISA signal of 0.0659.

In turn, B2 yielded an ELISA signal of 0.0597.

Take B3: the ELISA signal came out at 0.14.

In turn, B4 returned an ELISA signal of 0.0764.
